Results taken from patent US6300088A, “Method of detecting prostate specific antigen” (Duke University, priority 1998, dated 2001).
No end group written: not given here.

Legend:
[1] = mouse, in vivo, iv
Procedure: (§1) Plasma Elimination Studies--This procedure has been described in detail elsewhere. […] In brief, approximately 1.0 μg of radioiodinated protein or peptide was injected into the lateral tail vein of CD-1 mice. Blood samples of 25 μl were collected at timed intervals via retroorbital puncture. The initial time point, taken 5-10 seconds after injection, was considered to represent 100% radioactivity in circulation. Each preparation was studied at least in triplicate.

[2] = Plasma elimination studies in CD-1 mice (radioiodinated protein or peptide injected into the lateral tail vein)
Procedure: as §1

[3] = Tissue distribution of radioactivity in organs after the plasma elimination experiments (γ-counter); type: in vivo; conditions: mouse, after plasma elimination experiment; FIG. 5
Source text: Each preparation was studied at least in triplicate.
Following the plasma elimination experiments the organs of the test mice were examined for radioactivity using a γ-counter.

## Ala-Pro-Leu-Ile-Leu-Ser-Arg (APLILSR; not fully specified; printed as Ala-Pro-Leu-Ile-Leu-Ser-Arg) [activation peptide]
[1]
  effect of excess unlabelled activation peptide on clearance rate / half-life: not significantly affected
  plasma elimination half-life of the peptide: less than 2 minutes

## ^125 I-α1 -ACT.cndot.PSA complexes: complex of prostate specific antigen with the protease inhibitor α1-antichymotrypsin
[2]; i.v. lateral tail vein, labelled complex injected alone
  half-life of removal from the mouse circulation: approximately 20 minutes
[2]; i.v., coinjected with a large excess of unlabeled α1-ACT·PSA complexes
  half life in mouse circulation on coinjection with excess unlabeled complex: several hours
[2]; mouse, i.v., FIG. 3
  half life of complex compared to native α1-ACT: significantly reduced

B1: ^125 I-α1 -ACT: α1-antichymotrypsin, purified as previously described (Salvesen et al.) (protein, UniProt P01011 24-423, looked up)
Alpha-1-antichymotrypsin: HPNSPLDEENLTQENQDRGTHVDLGLASANVDFAFSLYKQLVLKAPDKNVIFSPLSISTALAFLSLGAHNTTLTEILKGLKFNLTETSEAEIHQSFQHLLRTLNQSSDELQLSMGNAMFVKEQLSLLDRFTEDAKRLYGSEAFATDFQDSAAAKKLINDYVKNGTRGKITDLIKDLDSQTMMVLVNYIFFKAKWEMPFDPQDTHQSRFYLSKKKWVMVPMMSLHHLTIPYFRDEELSCTVVELKYTGNASALFILPDQDKMEEVEAMLLPETLKRWRDSLEFREIGELYLPKFSISRDYNLNDILLQLGIEEAFTSKADLSGITGARNLAVSQVVHKAVLDVFEEGTEASAATAVKITLLSALVETRTIVRFNRPFLMIIVPTDTQNIFFMSKVTNPKQA
modifications: 125I label
[3]
  organs with predominant radioactivity (tissue distribution): bladder and kidney
[2]; i.v. lateral tail vein, injected alone, estimated
  half life in mouse circulation: several hours
